# Test: label from the status in PepcDB records
# 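Note: failed if final PepcDB status was selected cloned or expressed and not failed if soluble or beyond.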
row,Sequence,protein production
1,MSKIDWDSPEGAERYDRNCDHQFQKGHVLIEMMGIKKGDFVLDVGCGTGRQALNVAGIIGPAGKLTGIDPSSYRIELARKKFEGDSSGNVRFLVRQAENLQDIPDNSINHAYFCSSFHWVDDKKTALNEIFRVLRPGGKVGMTTLDRNSPNTMKALIDPILAKFGIERRHEWHRGMKKVTAPELHDLLSGAGFTSISIEPRAVPRKYNSPEEFLQHPEEKDSSRGILRDISNETLEKLRQEITEEFRKAQTPEDIGFGNITLFAIATKAQEGI,failed
2,MKRIFKGHSPWGFLSFRHAENQEPPRYLTGYTPVKRIHKAASMGDIPQVQKLLEFGNIDVNITDRKKRTALHYACAHGQSEMVSLLLWYDCNIEARDREESTALIKATQRQHEICVKILLENGADPNAVDAYHITALHYAVYNNDTAIAAKLLSFNANTEIKTKNGYTPLILAVLENKQEMVELLLRAAANINALDNCKRSALIHAVRIQSKNMISLLLQQGADPSLVDIYGATAQSYAVFETFQVLSQSPGPSCPELTTKEDKQSFDTKDGCIPHSHHIKEDNQEMEENTDDKLGSPAALKHKEKELENCEECNSEADTYPESYSKTSSAQRRSNSEPTEVDDEPSFSTKPPVAQSPMFTESSLWVGYPADWPEPVKFSRQPAVYNPTEWREDMESRSVPREESKQQVAIFPEGKEADVQTQELLSRVFKESGDNDPNLPAIENTKDELVSLLAPLEENKPQMTEFPLIEAAKFQTDVQLDRCPCFLLSLRNSLSGTLD,failed
3,MNTRAPAVEARQLIKTYPGDVTALSGMDITVEPGTVFGLLGPNGAGKSTTVKILTTLARPDSGTATVAGHDVLRHPDRVRRAIGVVAQSSGADPVATGRENLRLQGRLHGLKGAGLSRRVAELLDRFKLADAAGRQVKGYSGGMRRRLDVALGLVHRPEVLFLDEPTTGLDPEARTAMWDEIARLAGDEGLTILLTTHYLEEADRLAERIAIVDRGRVVVEGTPDGLKGELRGDAIHLELREAVGQAGRTLLKGSLGGVPGVHEVLFDDAQGRRVSVRADDGAAAMPALLGALERAGVGVAAATVARPSLDDVYLRHAGRRYSEAEAEGADSLALAGATGGTRLEHHHHHH,failed
4,MKGKLGLFAAMLVLAGCATASEQLRVYTEQYPPYNMTTNGQPFAHSESEITGLCTDVLKAVLENAKVDYSIKLRDLSYGMNRAQRHEDHGIYCVSKTDEREPFFEWVGPLSSIKWTLFAKPGSSIKLDDLEDARDYRIGGYKGDVMTGYLEDKGFDVSAITNNGLNAKRLEQDQIDLWVADGLAGPYLAADASDVTGLEAVLVFRETPMYLAINKDSDPDLIKALNTAYQAMQESGEIDTISRSYGL,failed
5,MAENKLGRDIPRKYANQYGVFEGELAHIKSYKESSRQVKPVKPSDDKLLSSIHEAIEKTRLKDGMTISFHHHFREGDYVMNMVLDEIAKMGIKDISIAPSSIANVHEPLIDHIKNGVVTNITSSGLRDKVGAAISEGIMENPVIIRSHGGRARAIATDDIHIDVAFLGAPSSDAYGNANGTRGKTTCGSLGYAMIDAKYADQVVIVTDTLVPYPNTPISIPQTDVDYIVVVDAIGDPEGIAKGATRYTKNPKELLIAEYAAKVITSSPYYKEGFSFQTGTGGASLAVTRFMREQMIKDDIKANFALGGITNAMVELLEEGLVDKILDVQDFDHPSAVSLDRNAEKHYEIDANMYASPLSKGSVINQLDICVLSALEVDTNFNVNVMTGSDGVIRGASGGHCDTAFAAKMSLVISPLVRGRIPTFVDKVNTVITPGTSVDVVVTEVGIAINPNRPDLIEYFKDLKVPQLTIEELKEKAYAIVGNPQPIQYGDKIVALIEYRDGSLIDVVRNVLEHHHHHH,not failed
6,MGNSLHQIKCCTSFIHCQNAAVDAPSIAKTLADYLYPAFFHQDLPAPLKISVTGCPNQCGGGVEADIGISGYFATVPRVDDAGLMAANIDFGHLISGCPVGAIRPRQVEGGTTVVINAERCIRCTSCIQVAPEGIKPGPERFVAIAVGGHGGNNRRGPEMAAVVFSRVPARPLDYAAICERVQRIIACWRDRGKRGERLAGFLERLEHHHHHH,failed
7,MNHKQYLALAVPLIISTITTPLLGAVDTAVAGQLSSPAYIGGVAVGTMIFNTMYWLLGFLRVSTSGFAAQSLGSQNRSESVLALARPVFIALFAGLMFIILQKPLEYAALTLIQPDRHTAEFASQYFSLRIWGAPFALISYCILGWLMGMSLIKVTLLLQISMNVLNIVLDIVFVYVFHMEVYGIALATLISDVTGCLIGCWLVKTNAAMPFKLPSVKLLFDPKPFKKMMVVNRDLLIRTLCLLTVFNLFTAKGAGFGAEILAANAILIQIHYLMAYVFDGFANASSIFAGKAVGRMDRDLYSRTLSLSIQWSLISAALLSVGYFLLRNAILPLFTPLESVLEAAKTYDVWIALFPLAASFGLVFYGIFTGATEIGPVRNSMFLAVLVFLAAFFTAVPAFGNHGLWLAFLLFSLGRSVFLCMAVPGLTTRLFGERSAAREAGQRPKSLKHPG,failed
8,MVKTAVLMATYNGEIFISEQLDSIRQQTLKPDYVLLRDDCSTDETVNVVNNYIAKHELEGWKIVKNDKNLGWRLNFRQLLIDVLAYEVDYVFFSDQDDIWYLDKNERQFAIMSDKPQIEVLSADVDIKTMSTEASVPHFLTFSSSDRISQYPKVYDYQTFRPGWTIAMKRDFAQAIADNWTFGANISHDNLIETTASIIGNGYNLNESVGVHIRYGGNASGNSKFVLNWKSPKTQHITGLKTFVDFYETMQKVVNKYQNDVALNQRLAFEKERLEASKLSLIHNSAFVIKNWRLYNSNSGRMRDLLFAFKKLEHHHHHH,not failed
9,MTEKLIEQLEARINDLECQVAFQEQTIEDLNSALSQQQLQITKMQDQMKYVVGKVKNMDSSNMEDPANEPPPPHY,failed
10,EVGVNMAVTPGKVIFQNEIMQLIQYEPATATVQRTPLLIVPPWINKYYILDLKPEKSFIKWCVDQGLTVFVISWVNPDKSLADKDFADYMKLGPLTAMDVVEKVTGEMKVHTLGYCVGGTLLASTLAWLAERRRVRVTSATFLTTQVDFTHAGDLMVFVDEEQISAVEREMKVTGVLEGAKMAMAFNMLRPNDLIWSYVVNNYLKGQPPQAFDLLHWNSDATRMPAANHSYYLRNCYLDNKLSAGTMVLDNTTLDLTKVKVPIYNLATREDHIAPAESVLYGSQFFGGPVKFVLSGSGHI,failed
11,YCKTIPMPDLAYSEISVIGKLIRALPEPCALHLANSSTVRYAQLFTVPPQVEICCNRGVNGIEGSLSTAIGYAAASSKLNFIIIGDLSFFYDMNALWNQNYGANIRILLLNNEGGEIFHTLPGMDKSSRSREFITAEHYTTAKGWAEERGFIYMKVTGEEELEEAMQPFTSPETRMQPMLLEVFTDKEKD,failed
12,MSRRNGGLFPTDLQTIARDIGSLLLMEAGLMTITAAVALGFQEFYAAFGFFTAAGMTAGVGGLANRGFSDAPAPQMKHGMVIAAGGWLLVAAFGSLPFLLTAWFTPPAVMDTFVPVGTDTSTWAPIRVGGTTTLSSLAYFRNPLHAFFESMSGWTGSGLTMAIHEPSLPRAVQWWRSFIQYVGGVGVIVLTVSILSRPGSGSYALYQSEAREEKIHPSVVSTVRTVWKLVVGYTVLSFALLFGAILASDSEYAESLPLWEVAWQALNHAMTGLTTGGFSVTDNSIATYNSPLVETVLLPIMILGAIAFPVHYVVLHDRQVRELVTDLQTRWLFILLTVGVVGLSVQNAWSVPATTEAFATQSFLPVSVPMLNAAQLDAVRDSTFQWVSALSCTGFQSAPIGRWLAGGKVLVAGAMVLGGAAGSTVGGIKIIRGYTIVRGIIWQFSRVFLPTNAVITARIGNRTLDRESMEREFSEAAIVTLLWLIILIISSVVLTNVAGPAFGYADALFEVASAQGNVGLSSGITGPSMPAIAEGMFVLNMWVGRLEIIPILVFIRAGLYGLDP,failed
13,MNDSIKKINYLFICLFIFLNPLIPYNVKIHNNITVSDILLLVIFVLFLVEILRNRQKLKECFYIMLGDKTLFCLILLFIVMMISVTYAKEKPLALEESLRFFCYIGLYIILSLSYREEKHFKGFVTSFVASVTLISIIGIFQKITGMGIPHQYDYKVNGVTMVRVAAVFGNPNTLAAFMILSIFPIVMFAFFEKNLKKKAFYSILSVLIVYNAALTGSRNSYMGLALGFCVLALIYSIKLILPIIVLGGASMFLPQVTSRLRSIDNKNLNDARIKLWKTALKMIKDHPLSGVGNGNYIANYDAYVKQYPELRYADYSRFPVHNSYLKIESELGIFGGIFFVATIVNVFLKLYNTYKKTDIKIKKAFYLGFIASTSAFLFMNFSDNLLFVPSITSFFWMFVAIGDRH,failed
14,MDIIPILLLAAGQSRRMGGADKLMQEIDGMPLLRRTALRAIPVAPVIAALPPAPHPRHGALVGLTLDIVEVPDAAEGMNASLRRAVAALPPEAPAAMILLADLPDLTESDLNTVRRAVDFSQKNLIWRGATEDGQPGHPVVFHRCLFPQLLALRGDQGAQPLVRDHADRVALVPLPGQHARTDLDTPEAWADWRARQQ,failed
